Patent publication US7838294B2, “Inhibitors of the JNK signal transduction pathway and methods of use” (University of Massachusetts, priority 1997, dated 2010)

Columns and labels:
c-Myc activation domain = experiment: GAL4 luciferase reporter assay in CHO cells: c-Myc activation domain; type: cell-based, Chinese hamster; conditions: 48 hours post-transfection, FIG. 4A
Protocol: (§1) In these experiments, CHO cells were cotransfected with constructs encoding the transcription factors and JIP-1 using previously described methods. Dérijard et al., supra; Sluss et al., supra; Gupta et al., supra. A luciferase reporter plasmid was used to monitor the expression of the transcription factors. Transfection efficiency was determined using a β-galactosidase expression vector. Constructs used in these experiments included GAL4 fusions with the c-myc, Sp1 and VP16 activation domains (described in Whitmarsh et al., Science, 269:403 (1995); Davis, Science, 269:403 (1995); Gille et al., Curr. Biol., 5:1191 (1995)). […]
(§2) Transfected cells were activated by treatment with 10% (v/v) fetal calf serum, and luciferase and β-galactosidase activities were measured in cell lysates at 48 hours post-transfection. The data are presented as the ratio of luciferase activity (light units) to β-galactosidase activity (OD units) measured in the cell extracts (mean±SEM (n=3)), and are normalized to the luciferase activity detected in the absence of JBD (FIGS. 4A and 4B) or ATF2 (FIG. 4C).

E1a activation domain = experiment: GAL4 luciferase reporter assay in CHO cells: E1a activation domain; type: cell-based, Chinese hamster; conditions: 48 hours post-transfection, FIG. 4A
Sp1 activation domain = experiment: GAL4 luciferase reporter assay in CHO cells: Sp1 activation domain; type: cell-based, Chinese hamster; conditions: 48 hours post-transfection, FIG. 4A
Protocol: as §1, §2

VP16 activation domain = experiment: GAL4 luciferase reporter assay in CHO cells: VP16 activation domain; type: cell-based, Chinese hamster; conditions: 48 hours post-transfection, FIG. 4A
Protocol: as §1, §2

[1] = system: ATF2 transcriptional activity; experiment: GAL4 luciferase reporter assay in CHO cells: GAL4-ATF2; type: cell-based, Chinese hamster; conditions: GAL4-ATF2 reporter, CHO cells, FIG. 4C
Protocol: In these experiments, CHO cells were cotransfected with constructs encoding the transcription factors and JIP-1 using previously described methods. Dérijard et al., supra; Sluss et al., supra; Gupta et al., supra. A luciferase reporter plasmid was used to monitor the expression of the transcription factors. Transfection efficiency was determined using a β-galactosidase expression vector. Constructs used in these experiments included GAL4 fusions with the c-myc, Sp1 and VP16 activation domains (described in Whitmarsh et al., Science, 269:403 (1995); Davis, Science, 269:403 (1995); Gille et al., Curr. Biol., 5:1191 (1995)). Other constructs used were GAL4-c-Jun, in which GAL4 is fused to c-Jun; GAL4-c-Jun (S63A/S73A), in which GAL4 is fused to a mutant c-Jun in which the serines at positions 63 and 73 have been changed to alanines; GAL4-ATF2, in which GAL4 is fused to wild type ATF2 (ATF2(Thr-69, 71)); GAL4-ATF2 (T69A/T71A) (ATF2(Ala-69/71)), in which GAL4 has been fused to a mutant ATF2 in which the […] at positions 69 and 71 have been changed to alanines; GAL4-Elk-1, in which GAL4 has been fused to Elk-1; and GAL4-Elk-1 (S383A), in which GAL4 has been fused to a mutant Elk-1 in which the serine at position 383 has been changed to an alanine. Gupta et al., EMBO J, 15:2760-2770 (1996); Raingeaud et al., Mol. Cell. Biol., 16:1247-1255 (1996); Whitmarsh et al. Science, 269:403-407 (1995).
Insertional overlapping PCR, described in detail in Ho, supra, was used to construct expression vectors for the JNK binding domain (JBD; amino acid residues 127-281) of JIP-1 and for a mutant JIP-1 lacking the SH3 (amino acid residues 491-540) domain.
as §2

[2] = system: differentiated PC12 cells; experiment: NGF withdrawal-induced apoptosis of differentiated PC12 cells; type: cell-based; conditions: pCDNA3-Flag-JIP-1 (residues 127-281) transfection; 17 hours following NGF withdrawal; FIG. 5
Source text: The effect of JIP-1 on this biological response was investigated to determine whether JIP-1 inhibits the biological effects of the JNK signaling pathway. NGF withdrawal-induced apoptosis of differentiated PC12 cells was examined following transfection with the expression vectors pCDNA3 (control) and pCDNA3-Flag-JIP-1 (containing residues 127-281 of JIP-1) using methods described previously. Xia et al., Science, 270:1326 (1995). The percentage of apoptotic cells in the total transfected cell population was blind-scored and quantitated. This assay scores adherent cells with an apoptotic morphology at 17 hours following NGF withdrawal. Cells that have completed apoptosis are nonadherent and are not scored. Thus, while the cumulative extent of apoptosis is large (100%), lower numbers of apoptotic cells are detected at a single time point.

JNK = JNK activation by v-ABL or BCR-ABL in transfected 293 cells (immune complex kinase assay); type: cell-based; conditions: co-expression in 293 cells; GST-Jun substrate
Source text: The BCR-ABL oncogene, which is associated with chronic myelogenous leukemia (CML), causes JNK activation in the absence of increased ERK activity. Raitano et al., Proc. Natl. Acad. Sci. USA, 92:11746 (1995). Oncogenic transformation by BCR-ABL may be mediated in part by the JNK signaling pathway. Since JIP-1 can inhibit JNK activity, the effect of JIP-1 expression on oncogenic transformation was examined. Plasmid vectors expressing v-ABL or BCR-ABL and Flag-tagged JBD (residues 127-281) of JIP-1 were used to transfect 293 cells. JNK activity was then measured in an immune complex kinase assay of lysates of the transfected 293 cells, using a polyclonal JNK antibody and GST-Jun as the substrate. […] JIP-1 can therefore inhibit BCR-ABL-mediated activation of JNK.

[3] = system: primary mouse marrow cells (pre-B cells); experiment: Bone marrow transformation assay: pre-B cell transformation by BCR-ABL retrovirus; type: cell-based; conditions: bicistronic retrovirus, JBD in sense orientation (not anti-sense); day 10 post infection; FIG. 6
Protocol: To examine the effect of JIP-1 on BCR-ABL-mediated cellular transformation, bone marrow transformation assays were performed using recombinant retroviruses packaged with 293T cells as described in Sawyers et al., J. Exp. Med., 181:307 (1995). Bicistronic retroviruses expressing BCR-ABL, alone, or in combination with the Flag-tagged JBD (residues 127-281) of JIP-1, were prepared by subcloning p185BCR-ABL into the ClaI site of pSRαTK, downstream of the internal TK promoter, to create pSRαMSVTKp185. The JBD was subcloned into the upstream EcoRI site in the sense and antisense orientations.
The recombinant retroviruses were then used to infect primary mouse marrow cells, and the transformation of pre-B cells was monitored in culture. […] The data shown are derived from three independent experiments plated in triplicate. As expected, BCR-ABL caused pre-B cell transformation.

B1: JBD: JNK binding domain of JIP-1, residues 127-281, expressed (Flag-tagged) in cells (protein)
chain: PKAESNQDPAPRSQGQGPGTGSGDTYRPKRPTTLNLFPQVPRSQDTLNNNSLGKKHSWQDRVSRSSSPLKTGEQTPPHEHICLSDELPPQGSPVPTQDRGTSTDSPCRRSAATQMAPPSGPPATAPGGRGHSHRDRIHYQADVRLEATEEIYLTP
modifications: Flag tag
c-Myc activation domain
  reporter gene expression mediated by c-Myc activation domain: did not inhibit
E1a activation domain
  reporter gene expression mediated by E1a activation domain: did not inhibit
Sp1 activation domain
  reporter gene expression mediated by Sp1 activation domain: did not inhibit
VP16 activation domain
  reporter gene expression mediated by VP16 activation domain: did not inhibit
[1]
  JNK-regulated gene expression: inhibition
[2]
  apoptosis following NGF-withdrawal: markedly reduced
JNK
  constitutive JNK activation caused by v-ABL and BCR-ABL: blocked
[3]
  pre-B cell transformation by BCR-ABL: marked inhibition
